Drawing on publication PMC6005519, “Reconstitution and functional studies of hamster P-glycoprotein in giant liposomes” (PLoS ONE, 2018), this text covers Km for one substance.

The series deals with T1, Nc1ncnc2c1ncn2[C@@H]1O[C@H](COP(=O)(O)OP(=O)(O)OP(=O)(O)O)[C@@H](O)[C@H]1O.
T1 construct: Purified Pgp extracted from Chinese Hamster Ovary B30 cells, reconstituted in giant liposomes
Nature of the series: Km of ATP from Rho123 transport rates in giant proteoliposomes; colorimetric ATPase assay. Format: biochemical, Cricetulus griseus.

The term Km denotes the substrate concentration at which the rate is half of its maximum.

Sequence of P-glycoprotein (Pgp, ABCB1) (Cricetulus griseus) (chain, as listed by the source): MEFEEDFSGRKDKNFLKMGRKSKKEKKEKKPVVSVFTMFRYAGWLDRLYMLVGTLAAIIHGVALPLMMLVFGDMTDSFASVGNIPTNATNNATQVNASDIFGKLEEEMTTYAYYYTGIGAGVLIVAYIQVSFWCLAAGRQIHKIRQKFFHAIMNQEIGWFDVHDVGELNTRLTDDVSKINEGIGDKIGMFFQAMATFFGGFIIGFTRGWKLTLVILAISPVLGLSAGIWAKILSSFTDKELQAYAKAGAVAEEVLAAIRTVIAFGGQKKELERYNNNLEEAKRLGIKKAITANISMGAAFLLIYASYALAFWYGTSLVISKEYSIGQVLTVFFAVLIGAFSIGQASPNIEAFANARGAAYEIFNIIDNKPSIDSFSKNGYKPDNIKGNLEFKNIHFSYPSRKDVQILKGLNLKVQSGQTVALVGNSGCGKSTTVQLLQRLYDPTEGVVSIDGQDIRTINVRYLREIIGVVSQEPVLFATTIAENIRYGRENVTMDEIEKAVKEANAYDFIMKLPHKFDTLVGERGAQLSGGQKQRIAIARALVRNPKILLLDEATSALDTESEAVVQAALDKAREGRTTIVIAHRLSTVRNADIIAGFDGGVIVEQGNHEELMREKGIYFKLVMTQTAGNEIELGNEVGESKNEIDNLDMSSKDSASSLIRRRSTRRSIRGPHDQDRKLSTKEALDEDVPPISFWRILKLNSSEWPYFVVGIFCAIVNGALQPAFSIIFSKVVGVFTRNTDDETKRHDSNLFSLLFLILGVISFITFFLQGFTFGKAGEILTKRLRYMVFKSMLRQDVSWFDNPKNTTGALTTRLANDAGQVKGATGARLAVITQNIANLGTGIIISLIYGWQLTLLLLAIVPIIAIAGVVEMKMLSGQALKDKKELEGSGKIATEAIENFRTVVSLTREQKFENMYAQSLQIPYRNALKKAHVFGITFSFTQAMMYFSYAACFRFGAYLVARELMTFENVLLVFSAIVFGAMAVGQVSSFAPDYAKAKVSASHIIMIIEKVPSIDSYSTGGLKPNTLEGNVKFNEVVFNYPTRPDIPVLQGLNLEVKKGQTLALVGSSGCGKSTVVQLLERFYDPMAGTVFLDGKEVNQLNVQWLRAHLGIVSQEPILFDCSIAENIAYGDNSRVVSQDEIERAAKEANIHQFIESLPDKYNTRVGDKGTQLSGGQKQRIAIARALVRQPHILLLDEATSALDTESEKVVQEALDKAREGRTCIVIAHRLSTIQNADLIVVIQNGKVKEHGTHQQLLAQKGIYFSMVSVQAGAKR

For “P-glycoprotein (Pgp, ABCB1) (Cricetulus griseus)”, the Km was 420 ± 750 µM.
